Assay [1] deals with T1, human GPC3-his tag protein (human, UniProt P51654 25-559, limits assumed).
T1 construct: recombinant soluble antigen used as analyte in all Biacore runs; also called recombinant GPC3 protein; rhGPC3-His; not shown: His tag
Put plainly: SPR Biacore 8K, mAb captured on CM5, single dose GPC3-his. Here is the method:
The binding of mouse monoclonal antibodies to human GPC3-his was tested with Biacore using a capture method. The antibodies were captured using CM5 sensor chip. A single dose of human GPC3-his tag protein was injected over captured antibody for 2 mins at a flow rate of 30 μl/min. The antigen was allowed to dissociate for 360 s. All the experiments were carried out on a Biacore 8K. Data analysis was carried out using Biacore 8K evaluation software.
In general terms: In SPR one partner is held on a chip, and binding of the other changes the refractive index at the surface.

Assay [2] deals with T2, human GPC3 on cells (human, UniProt P51654 25-554).
T2 construct: whole, on cells; over-expressed on CHOK1 cells or endogenous on HEPG2, Hep3B and Huh-7 hepatocellular carcinoma cells; the cell line is named under assay; also called GPC3-CHOK1 cells; human GPC3 over-expressed CHOK1 cells
The assay can be described thus: FACS, GPC3-CHOK1 cells. Here is the method:
Briefly, GPC3-CHOK1 cells were firstly incubated with Fc blocking reagent at 4° C. for 15 mins. Cells were washed by FACS buffer and divided to each well with 3-fold serially diluted 52H5D3B8, 52H5D3B8-1 #, 52H5D3B8-2 #, 52H5D3B8-3 #, 52H5D3B8-4 #, 52H5D3B8-5 #, 52H5D3B8-6 #, 52H5D3B8-7 #, 52H5D3B8-8 #, 52H5D3B8-9 #, 52H5D3B8-10 #, 52H5D3B8-11 #, 52H5D3B8-12 #, 52H5D3B8-13 #, 52H5D3B8-14 # and 52H5D3B8-15# chimeric mAbs starting at 30 μg/mL at 4° C. for 60 mins. Cells were washed by FACS buffer and fixed with 2% PFA at RT for 15 mins. […] Samples were washed twice with FACS buffer.

Assay [3] addresses T1, human GPC3-his tag protein. Put plainly: SPR Biacore 8K, mAb captured, one or two doses GPC3-his. Here is the method:
The binding of the optimized antibodies of 52H5D3B8 mAb to human GPC3-his was tested with Biacore using a capture method. A single dose or two doses of human GPC3-his tag protein was injected over captured antibody. All the experiments were carried out on a Biacore 8K. Data analysis was carried out using Biacore 8K evaluation software.

Changes are numbered by the printed parent chain.

Usually Kd stands for the equilibrium constant for the complex coming apart. The low end stands for a tighter complex, the high end for a looser complex. In general, koff refers to the first-order rate constant of dissociation. A word on the kon: it is the rate constant with which the complex forms. A lower kon goes with slower complex formation. The EC50 is the concentration giving half of the maximal effect. A high value points to lower potency in that assay.

B1: 18C1D9 mouse monoclonal antibody (antibody, V domains shown)
VH: QVQLQQSGAELVRPGASVTLSCKASGYTFSDYEMHWVKQTPVHGLEWIGAIDPETGGTAYNQKFKGKATLTADKSSSTAYMELRSLTSEDSAVYYCTRYYSYAYWGQGTLVTVSA
VL: DVVMTQSPLSLPVSLGDQASISCRSRQSLVHSNGNTYLQWYLQKPGQSPKLLIYKVSNRFSGVPDRFSGSGSGTDFTLKISRVEAEDLGVYFCFQSIHVPYTFGGGTKLEKK
notes: mouse hybridoma antibody
With B1, in assay [1], binding was put at a Kd of 1.57 nM, the koff is 0.000412 s⁻¹ and the kon is 262000 M⁻¹ s⁻¹.

B2: 52H5D3B8 mouse monoclonal antibody (antibody, V domains shown)
VH: B1 VH with T19K, S25L, S30T, D52H, E54G, T55S, S75F, A79G, R84S, Y99F
VL: B1 VL with S7T, R26S, T77I, F94S, K111I
notes: mouse hybridoma antibody
In assay [1], B2 returned a Kd of 1.39 nM, a koff of 0.000317 s⁻¹ and an on-rate (kon) of 228000 M⁻¹ s⁻¹.

B3: 171F9C5 mouse monoclonal antibody (antibody, V domains shown)
VH: B1 VH with S30T, M34I, G56D, G57N, N61S, T69I
VL: DVVMTQTPLSLPVSLGDQASISCRSSQSPVHRNGNTYLHWYLQKPGQSPKLLIFKVSNRFSGVPDRFSGSGSGTDFTLKISRVAAEDLGVYFCSQTTHVPYTFGGGTKLEIK
notes: mouse hybridoma antibody
With B3, in assay [1], binding was characterised by a dissociation constant (Kd) of 1.22 nM, the off-rate constant (koff) stood at 0.000199 s⁻¹ and the association rate constant (kon) worked out at 162000 M⁻¹ s⁻¹.

B4: 52H5D3B8-14# chimeric mAb (antibody, V domains shown)
VH: B1 VH with T19K, S25L, S30T, D52H, E54G, T55S, S75F, A79G, R84S, Y102F
VL: B1 VL with S7T, R26S, T77I, K111I
notes: CDR3 mutant of the 52H5D3B8 chimeric mAb (human IgG1)
Regarding B4, in assay [2], a half-maximal effect (EC50) was put at 0.0895 µg/mL. Besides, in assay [3], the affinity, expressed as Kd, was 1.53 nM; the koff came to 0.000737 s⁻¹; the on-rate constant (kon) came to 481000 M⁻¹ s⁻¹.

B5: 52H5D3B8-5# chimeric mAb (antibody, V domains shown)
VH: B1 VH with T19K, S25L, S30T, D52H, E54G, T55S, S75F, A79G, R84S, Y102F
VL: B1 VL with S7T, R26S, T77I, F94S, K111I
notes: as for B4
In turn, B5 showed a half-maximal effective concentration (EC50) in assay [2] of 0.405 µg/mL. In assay [3], this molecule had a Kd of 4.12 nM, an off-rate constant (koff) of 0.000412 s⁻¹ and an association rate constant (kon) of 100000 M⁻¹ s⁻¹.

B6: 52H5D3B8-12# chimeric mAb (antibody, V domains shown)
VH: B1 VH with T19K, S25L, S30T, D52H, E54G, T55S, S75F, A79G, R84S
VL: B1 VL with S7T, R26S, T77I, I97T, K111I
notes: as for B4
For B6, a half-maximal response in assay [2] (EC50) required 0.235 µg/mL. Also, in assay [3], the Kd was 5.56 nM, the dissociation rate constant (koff) was 0.00133 s⁻¹ and the association rate constant (kon) worked out at 240000 M⁻¹ s⁻¹.

B7: 52H5D3B8-10# chimeric mAb (antibody, V domains shown)
VH: B1 VH with T19K, S25L, S30T, D52H, E54G, T55S, S75F, A79G, R84S, Y99F
VL: B1 VL with S7T, R26S, T77I, I97T, K111I
notes: as for B4
In assay [2], B7 gave a half-maximal effective concentration (EC50) of 0.176 µg/mL. In assay [3], this molecule showed a dissociation constant (Kd) of 4.05 nM, an off-rate constant (koff) of 0.00118 s⁻¹ and a kon of 291000 M⁻¹ s⁻¹.

B8: 52H5D3B8-11# chimeric mAb (antibody, V domains shown)
VH: QVQLQQSGAELVRPGASVKLSCKALGYTFTDYEMHWVKQTPVHGLEWIGAIHPGSGGTAYNQKFKGKATLTADKFSSTGYMELSSLTSEDSAVYYCTRFYSFAYWGQGTLVTVSA
VL: B1 VL with S7T, R26S, T77I, I97T, K111I
notes: as for B4
In turn, B8 registered an EC50 in assay [2] of 0.104 µg/mL. Besides, in assay [3], the Kd stood at 10.9 nM, the off-rate constant (koff) stood at 0.00354 s⁻¹ and the kon was 326000 M⁻¹ s⁻¹.

B9: 52H5D3B8-13# chimeric mAb (antibody, V domains shown)
VH: B8 VH with F99Y
VL: B1 VL with S7T, R26S, T77I, F94S, I97T, K111I
notes: as for B4
Molecule B9 yielded a concentration giving a half-maximal response (EC50) in assay [2] of 1.55 µg/mL. Further, in assay [3], the Kd amounted to 28.9 nM, the koff is 0.00143 s⁻¹ and the kon came out at 49600 M⁻¹ s⁻¹.

B10: 52H5D3B8-7# chimeric mAb (antibody, V domains shown)
VH: B8 VH with F99Y, F102Y
VL: B1 VL with S7T, R26S, T77I, F94S, I97T, K111I
notes: as for B4
For B10, in assay [2], the EC50 is 0.232 µg/mL. Besides, in assay [3], binding was characterised by a dissociation constant (Kd) of 3.97 nM, the koff amounted to 0.000617 s⁻¹ and the kon was 155000 M⁻¹ s⁻¹.

B11: 52H5D3B8-9# chimeric mAb (antibody, V domains shown)
VH: B8 VH
VL: B1 VL with S7T, R26S, T77I, F94S, I97T, K111I
notes: as for B4
Regarding B11, a half-maximal response in assay [2] (EC50) required 0.247 µg/mL. Moreover, in assay [3], the affinity, expressed as Kd, was 12.9 nM; the off-rate (koff) turned out to be 0.00216 s⁻¹; the kon came out at 167000 M⁻¹ s⁻¹.

B12: 52H5D3B8-8# chimeric mAb (antibody, V domains shown)
VH: B8 VH
VL: B1 VL with S7T, R26S, T77I, K111I
notes: as for B4
The molecule B12 showed an EC50 in assay [2] of 0.0919 µg/mL. In assay [3], the Kd turned out to be 2.03 nM, the off-rate (koff) was determined as 0.001 s⁻¹ and the association rate constant (kon) is 494000 M⁻¹ s⁻¹.

B13: 52H5D3B8-4# chimeric mAb (antibody, V domains shown)
VH: B8 VH with F102Y
VL: B1 VL with S7T, R26S, T77I, F94S, I97T, K111I
notes: as for B4
Regarding B13, the EC50 in assay [2] worked out at 0.0986 µg/mL. In addition, in assay [3], binding was characterised by a dissociation constant (Kd) of 1.72 nM, the dissociation rate constant (koff) was found to be 0.000578 s⁻¹ and the on-rate constant (kon) is 335000 M⁻¹ s⁻¹.

B14: 52H5D3B8-15# chimeric mAb (antibody, V domains shown)
VH: B8 VH with F99Y
VL: B1 VL with S7T, R26S, T77I, I97T, K111I
notes: as for B4
For the molecule B14, the EC50 in assay [2] came out at 0.15 µg/mL. Moreover, in assay [3], the Kd was determined as 28.2 nM, the off-rate constant (koff) turned out to be 0.00755 s⁻¹ and the kon stood at 267000 M⁻¹ s⁻¹.

B15: 52H5D3B8-1# chimeric mAb (antibody, V domains shown)
VH: B8 VH with F99Y, F102Y
VL: B1 VL with S7T, R26S, T77I, F94S, K111I
notes: as for B4
In turn, B15 gave an EC50 in assay [2] of 0.104 µg/mL. In assay [3], this molecule gave a Kd of 0.74 nM, a koff of 0.000288 s⁻¹ and an on-rate (kon) of 390000 M⁻¹ s⁻¹.

B16: 163E7D12 mouse monoclonal antibody (antibody, V domains shown)
VH: B1 VH with S30T, D52G, G57S, K63R, T69I, L70V, Y102F
VL: B1 VL with S7T, D17G, R26S, Y54F, K111I
notes: mouse hybridoma antibody
In the case of B16, in assay [1], binding was put at a Kd of 0.755 nM, the off-rate (koff) was 0.000169 s⁻¹ and the kon was 223000 M⁻¹ s⁻¹.

B17: 52H5D3B8-3# chimeric mAb (antibody, V domains shown)
VH: B8 VH with F102Y
VL: B1 VL with S7T, R26S, T77I, K111I
notes: as for B4
In the case of B17, in assay [2], a half-maximal effect (EC50) was put at 0.0869 µg/mL. In assay [3], this molecule returned a dissociation constant Kd of 1.06 nM, a dissociation rate constant (koff) of 0.000556 s⁻¹ and an on-rate constant (kon) of 525000 M⁻¹ s⁻¹.

B18: 52H5D3B8-2# chimeric mAb (antibody, V domains shown)
VH: B8 VH
VL: B1 VL with S7T, R26S, T77I, F94S, K111I
notes: as for B4
As to B18, it took 0.149 µg/mL to reach a half-maximal effect in assay [2] (EC50). In assay [3], this molecule gave a dissociation constant (Kd) of 5.31 nM, a koff of 0.00121 s⁻¹ and an association rate constant (kon) of 228000 M⁻¹ s⁻¹.

B19: 172B4E9 mouse monoclonal antibody (antibody, V domains shown)
VH: QVQLQQSGAELVRPGASVTLSCKASGYTFTDYEIHWVKQTPVHGLEWIGAIDPATGDTAYTQKFKGKAILTADTSSNTVYMELRGLTSEDSAVHFCTRFYSYAYWGQGTLVTVSA
VL: B3 VL with P29L, R32T, N35H, H39Q, P45S, K50R, T77K, A84E, T96S
notes: mouse hybridoma antibody
Take B19: in assay [1], the Kd was 0.446 nM, the koff is 9.01e-05 s⁻¹ and the kon turned out to be 202000 M⁻¹ s⁻¹.

B20: 152E9F7 mouse monoclonal antibody (antibody, V domains shown)
VH: B19 VH with A54E, T74K, G85S, H94Y, F95Y
VL: B1 VL with S7T, R26S, S32T, N35H, P45S, F94S, I97T, K111I
notes: mouse hybridoma antibody
For the molecule B20, in assay [1], the Kd came to 0.881 nM, the off-rate (koff) was 0.000162 s⁻¹ and the kon was found to be 184000 M⁻¹ s⁻¹.

Values taken from patent US20240409663A1 (CONCEPT TO MEDICINE BIOTECH, published 2024).
